Measurements published in patent publication US20240417479A1 (LASSEN THERAPEUTICS, published 2024).
Numbering of substitutions follows the chain as printed.

T1: human IL-18BP (interleukin-18 binding protein), mature human isoform A (human, UniProt O95998 31-194)
T1 sequence: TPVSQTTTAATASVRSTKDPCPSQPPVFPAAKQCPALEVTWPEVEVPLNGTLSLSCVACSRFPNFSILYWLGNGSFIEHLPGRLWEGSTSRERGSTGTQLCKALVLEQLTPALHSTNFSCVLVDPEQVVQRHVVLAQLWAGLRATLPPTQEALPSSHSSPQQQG

T2: cynomolgus monkey IL-18BP (cynomolgus monkey)
T2 chain: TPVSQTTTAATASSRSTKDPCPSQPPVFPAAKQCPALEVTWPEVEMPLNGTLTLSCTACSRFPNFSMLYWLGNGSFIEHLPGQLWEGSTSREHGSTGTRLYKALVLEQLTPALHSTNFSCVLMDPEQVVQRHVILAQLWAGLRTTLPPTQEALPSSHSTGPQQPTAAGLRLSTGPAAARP

B1: SA302a (antibody, human IgG1, V domains shown)
VH: QVQLQESGPGLVKPSQTLSLTCTVSGYSITSDYNAHWIRQPPGKGLEWIGYIHYSGSTNYNPSLKSRVTISRDTSKNQFSLKLSSVTAADTAVYYCARNYGSIYVNYFDYWGQGTLVTVSS
VL: EIVLTQSPATLSLSPGERATLSCSASSSVSYMYWYQQKPGQAPRPLIYRTSNLASGIPARFSGSGSGTDFTLTISSLEPEDFAVYYCQQYHSYPTFGGGTKVEIK
B2: SA339a (antibody, human IgG1, V domains shown)
VH: B1 VH with S31Q, S57Q, N59Y, Y100F
VL: B1 VL with P94V
notes: Humanized; human IgG1, kappa
B3: SA337a (antibody, human IgG1, V domains shown)
VH: B1 VH with S31Q, S57Q
VL: B1 VL with Q89L
B4: SA340a (antibody, human IgG1, V domains shown)
VH: B1 VH with S31Q, S57Q, N59Y, Y100F
VL: B1 VL with T95K
B5: SA338a (antibody, human IgG1, V domains shown)
VH: B1 VH with S31Q, S57Q, N59Y, Y100F
VL: B1 VL with Q89L

Experiments:
[1] = target: T1, human IL-18BP (interleukin-18 binding …); assay: cell-based or functional assay
[2] = target: T1, human IL-18BP (interleukin-18 binding …); assay: cell-based or functional assay; remark: listed apart in the source
[3] = target: T2, cynomolgus monkey IL-18BP; assay: cell-based or functional assay
[4] = target: T2, cynomolgus monkey IL-18BP; assay: cell-based or functional assay
[5] = target: T1, human IL-18BP (interleukin-18 binding …); assay: BLI (Octet), mAb on AHC biosensor, IL-18BP in solution

Binder	EC50; CCL2 release (ELISA) from human PBMC with IL-12 + IL-18, PBMC assay 1 (endogenous IL-18BP) [1] [nM]	EC50; IFNγ secretion (ELISA) from purified human NK cells with precomplexed hIL-18:hIL-18BP plus IL-12 [2] [nM]	EC50; IFNγ release (ELISA) from cynomolgus monkey PBMC with IL-12 + IL-18, assay format 1 (endogenous IL-18BP) [3] [nM]	EC50; IFNγ release (ELISA) from cynomolgus monkey PBMC, assay format 2 (pre-complexed IL-18:IL-18BP, plus IL-12) [4] [nM]	Kd [5] [nM]
B1	25	1.3	3.4	0.63	–
B2	–	–	–	–	0.087
B3	4.7	0.59	0.58	0.39	–
B4	–	0.23	–	–	–
B5	0.9	0.43	0.14	0.41	–
